# Results as given in publication PMC12804074.
# Key:
# [1] = molecular target: (NFS1–ISD11–ACP–ISCU2)2 complex (human) (UniProt Q9HD34); assay: ITC
# [2] = molecular target: FXNALC (frataxin labelled with ALC 480) (human) (UniProt Q16595); assay: flow-induced dispersion analysis
# [3] = molecular target: FDX2ALC (ferredoxin-2 labelled with ALC 480) (human) (UniProt Q6P4F2); assay: flow-induced dispersion analysis
# [4] = molecular target: cysteine desulfurase complex (NFS1–ISD11–ACP)2 (human) (UniProt Q9HD34); assay: ITC
# Chain of ferredoxin-2 (FDX2), wild type (Q6P4F2 53-183): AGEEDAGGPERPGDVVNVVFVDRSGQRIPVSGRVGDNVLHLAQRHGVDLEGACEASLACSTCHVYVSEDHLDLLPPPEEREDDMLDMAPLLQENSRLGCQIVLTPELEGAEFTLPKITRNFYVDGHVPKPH
# Chain of FDX2ALC (ferredoxin-2 labelled with ALC 480) (human) (Q6P4F2 53-183): as above
substance,measurement,setting,value
frataxin (FXN) (from UniProt Q16595 42-210) (natural protein),Kd,[1],146 nM
(NFS1–ISD11–ACP–ISCU2)2 complex (from UniProt Q9HD34 1-91; O14561 69-156; Q9H1K1-1 35-167),Kd,[2],102 nM
same,Kd,[3],16000 nM
"ferredoxin-2 (FDX2), wild type (from UniProt Q6P4F2 53-183) (natural protein)",KD of the tight-binding exothermic mode,[1],102 nM
FDX2 D179A (from UniProt Q6P4F2 53-183) (natural protein),Kd,[4],39 nM
